Source: publication PMC4240585, “Solution Structure of the SGTA Dimerisation Domain and Investigation of Its Interactions with the Ubiquitin-Like Domains of BAG6 and UBL4A” (PLoS ONE, 2014)

What was measured:
[1] = molecular target: the molecule itself; assay: NMR solution structure; SGTA_NT dimer; mixed isotope labelling, filtered NOESY for intermolecular NOEs; 100 mM MES pH 6.0, 150 mM KCl, 35 °C; ARIA2.1
[2] = molecular target: T1, UBL domain of UBL4A (UBL4A_UBL), residues 1-74 (human, UniProt P11441 1-74, RED-NHS (amine reactive) dye, in the MST experiment only); assay: ITC; 30 °C, 100 mM MES pH 6.0, 200 mM KCl; 20 injections of 2 µL SGTA_NT (dimer, 500 µM) into UBL at 50 µM (monomer); independent binding sites model; conditions: both partners purified
T1 sequence (looked up): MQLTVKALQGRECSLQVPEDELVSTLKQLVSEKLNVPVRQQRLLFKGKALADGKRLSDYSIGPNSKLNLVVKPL

[3] = molecular target: T1, UBL domain of UBL4A (UBL4A_UBL), …; assay: MST; labelled UBL at 0.4 µM, unlabelled SGTA_NT 400 µM to 24.4 nM; 100 mM MES pH 6.0, 150 mM KCl, 0.5 mM TCEP; 25 °C; Monolith NT.115; conditions: both partners purified

Kd [2]: 3 µM | dH [2]: 5900 ± 110 | stoichiometry N [2]: 0.949 ± 0.013 | Kd [3]: 3.7 µM | stoichiometry N [3]: 1 SGTA dimer: UBL monomer
B1: SGTA N-terminal dimerisation domain (SGTA_NT), residues 1-69 (domain or fragment, UniProt O43765 1-69, looked up)
chain: MDNKKRLAYAIIQFLHDQLRHGGLSSDAQESLEVAIQCLETAFGVTVEDSDLALPQTLPEIFEAAATGK
stoichiometry N [1]: 2
